Here are results for one substance from US20230287109A1.

What is called Kd is a measure of binding affinity in units of concentration.

Assay [1] deals with recombinant human VEGF (human) (UniProt P15692). The assay is described as follows: cell-based or functional assay.
The next assay has as its target rabbit VEGF (rabbit) (UniProt G1T1L9). The assay is described as follows: SPR, summary table, column Rabbit VEGF, Kd [M].

Sequence of recombinant human VEGF (human) (P15692 other isoform, or with tags, fused parts or gaps limits assumed): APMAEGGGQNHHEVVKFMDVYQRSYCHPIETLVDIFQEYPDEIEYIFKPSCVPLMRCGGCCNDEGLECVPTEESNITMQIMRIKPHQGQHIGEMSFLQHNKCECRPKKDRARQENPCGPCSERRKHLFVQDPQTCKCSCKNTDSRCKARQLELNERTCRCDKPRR

In the case of aflibercept (Fc fusion), the IC50, VEGF reporter assay (KDR/NFAT-RE HEK293 cells, luminescence) in assay [1] is 0.75 nM. The substance further returned a Kd in the assay with rabbit VEGF (rabbit) of 1.41 nM.
